Data on 16 molecules can be found in patent US20110275122A1.

Where “and” joins values, the source holds several entries; their conditions need not be identical. Equal values may be shown once. Where no end group is shown, it is not given here.

First the molecules themselves.
B1: SEQ ID NO: 149 (TPO-mimetic fusion protein of Table 13) (Fc fusion, not shown: a dimerising Fc or GST)
chain: AWMEGPTLRHWLAARAAY
modifications: also: Fc fusion, side and linker not given here
B2: SEQ ID NO: 123 (TPO-mimetic fusion protein of Table 13) (Fc fusion, not shown: a dimerising Fc or GST)
chain: WVMEGPTLRHWLAARASL
modifications: also: Fc fusion, side and linker not given here
B3: SEQ ID NO: 139 (TPO-mimetic fusion protein of Table 13) (Fc fusion, not shown: a dimerising Fc or GST)
chain: DAIEGPTLRLWLEARRKQ
modifications: also: Fc fusion, side and linker not given here
B4: SEQ ID NO: 225 (TPO-mimetic fusion protein of Table 13) (Fc fusion, not shown: a dimerising Fc or GST)
chain: LTMEGPTLRHWLAARATR
modifications: also: Fc fusion, side and linker not given here
B5: SEQ ID NO: 9 (TPO-mimetic fusion protein of Table 13) (Fc fusion, not shown: a dimerising Fc or GST)
chain: QGCSSGGPTLREWQQCRRMQHS
modifications: cysteine pairing not given here; also: fused to an Fc molecule, side and linker not given here
B6: SEQ ID NO: 163 (TPO-mimetic fusion protein of Table 13) (Fc fusion, not shown: a dimerising Fc or GST)
chain: HPIEGPTLRLWLAARARA
modifications: also: Fc fusion, side and linker not given here
B7: SEQ ID NO: 115 (TPO-mimetic fusion protein of Table 13) (Fc fusion, not shown: a dimerising Fc or GST)
chain: WMMEGPTLRHWLAARARY
modifications: also: Fc fusion, side and linker not given here
B8: Fc-Loop-(SEQ ID NO: 455) (Fc fusion, part only; not given: Fc and insertion site, part only)
chain, part: CSSGGPTLREWQQCQRAQ
modifications: cysteine pairing not given here; also: peptide inserted in a loop of an Fc
B9: SEQ ID NO: 241 (TPO-mimetic fusion protein of Table 13) (Fc fusion, not shown: a dimerising Fc or GST)
chain: ICTEGCTLRLWLAERSRV
modifications: cysteine pairing not given here; also: Fc fused at N- or C-terminus, side and linker not given here
B10: SEQ ID NO: 103 (TPO-mimetic fusion protein of Table 13) (Fc fusion, not shown: a dimerising Fc or GST)
chain: YMMEGPTLRHWLATRAGR
modifications: also: Fc fusion, side and linker not given here
B11: Fc-Loop-(SEQ ID NO: 456) (Fc fusion, part only; not given: Fc and insertion site, part only)
chain, part: CSSGGPTLREWQQCGRAQ
modifications: cysteine pairing not given here; also: peptide inserted in a loop of an Fc
B12: SEQ ID NO: 117 (TPO-mimetic fusion protein of Table 13) (Fc fusion, not shown: a dimerising Fc or GST)
chain: SAIEGPTLRHWLAWRAML
modifications: also: Fc fusion, side and linker not given here
B13: SEQ ID NO: 171 (TPO-mimetic fusion protein of Table 13) (Fc fusion, not shown: a dimerising Fc or GST)
chain: WPMEGPTLRHWLAARAAR
modifications: also: Fc fusion, side and linker not given here
B14: Fc-Loop-(SEQ ID NO: 454) (Fc fusion, part only; not given: Fc and insertion site, part only)
chain, part: CSSGGPTLREWQQCSRAQ
modifications: cysteine pairing not given here; also: peptide inserted in a loop of an Fc
B15: SEQ ID NO: 128 (TPO-mimetic fusion protein of Table 13) (Fc fusion, not shown: a dimerising Fc or GST)
chain: YYLEGPTLRHWLAARAYL
modifications: also: Fc fusion, side and linker not given here
B16: SEQ ID NO: 11 (TPO-mimetic fusion protein of Table 13) (Fc fusion, not shown: a dimerising Fc or GST)
chain: QGCSWGGPTLKNWLQCVRAKHS
modifications: cysteine pairing not given here; also: fused to an Fc molecule, side and linker not given here

For this assay, the target named is human mpl receptor (human) (UniProt P40238). The experiment in a line: cell-based or functional assay.
B1 displayed a Pb EC50 of 1.84 ng/mL.

The molecule B2 had a Pb EC50 of 2.08 ng/mL.

Turning to B3, the Pb EC50 is 1.89 ng/mL.

The molecule B4 came in with a Pb EC50 of 3.1 ng/mL.

B5 returned a Pb EC50 of 0.44 ng/mL.

B6 registered a Pb EC50 of 2.8 ng/mL.

Consider B7, for which the Pb EC50 was 1.43 ng/mL and 1.81 ng/mL.

In turn, B8 returned a Pb EC50 of 0.27 ng/mL.

In the case of B9, the Pb EC50 came out at 1.83 ng/mL.

B10: the Pb EC50 was 0.79 ng/mL.

B11: the Pb EC50 was determined as 2.31 ng/mL.

In turn, B12 displayed a Pb EC50 of 1.09 ng/mL.

In turn, B13 gave a Pb EC50 of 1.56 ng/mL.

B14 registered a Pb EC50 of 0.28 ng/mL.

Turning to B15, the Pb EC50 was 1.82 ng/mL.

With B16, the Pb EC50 was 4.01 ng/mL.
